# Paper PMC4815982
# Molecular target: AROS (UniProt Q86WX3)
# Assay: Flag-SIRT1 IP, HA-AROS immunoblot
# Settings: reference: wild type, Adriamycin-treated; sites S682
substance,measurement,value
"SIRT1 (from UniProt Q96EB6) S682A, Adriamycin-treated",binding against the reference,stronger
